Results from patent publication US20220227830A1, “QD DOSING OF GIP RECEPTOR AGONIST PEPTIDE COMPOUNDS AND USES THEREOF” (Takeda Pharmaceutical Company Limited, priority 2020, published 2022).
Starred links: 1 amine or outer side, 2 acyl side, 3 side chain; linkers in the order of their positions; H or OH if unused. Non-standard residues stand in square brackets, D forms with d. Groups on a side chain read outwards from the residue. No end group written: not given here. *: point of attachment. G2E3 = linker of 2 Gly and 3 Glu (read GGEEE); C16 diacid = O=C(O)CCCCCCCCCCCCCCC(=O)*; C15 diacid = O=C(O)CCCCCCCCCCCCCC(=O)*; γGlu = O=C(O)[C@H](CCC(=O)[*:2])N[*:1]; NMeY = CN[C@@H](Cc1ccc(O)cc1)C(=O)O; AEEA = NCCOCCOCC(=O)O; Aib = CC(C)(N)C(=O)O

Tests used:
[1] = molecular target: T1, full-length human GIPR with an N-terminal FLAG tag (human, UniProt P48546 22-466); experiment: cell-based or functional assay
T1 sequence (looked up): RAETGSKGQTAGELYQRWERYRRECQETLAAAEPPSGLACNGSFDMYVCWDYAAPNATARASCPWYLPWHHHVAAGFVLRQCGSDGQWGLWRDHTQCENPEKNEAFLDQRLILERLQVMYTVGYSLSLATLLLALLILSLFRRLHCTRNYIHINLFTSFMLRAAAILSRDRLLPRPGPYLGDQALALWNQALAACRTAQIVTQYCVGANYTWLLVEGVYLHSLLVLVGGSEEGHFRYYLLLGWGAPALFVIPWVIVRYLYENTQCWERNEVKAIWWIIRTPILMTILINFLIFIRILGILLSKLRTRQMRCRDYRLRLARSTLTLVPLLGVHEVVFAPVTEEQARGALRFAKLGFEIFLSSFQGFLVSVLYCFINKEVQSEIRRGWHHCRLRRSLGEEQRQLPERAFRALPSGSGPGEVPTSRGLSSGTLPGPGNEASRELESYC

[2] = molecular target: full-length human GLP-1R with an N-terminal FLAG tag (human, UniProt P43220 24-463); experiment: cell-based or functional assay

## [NMeY][Aib]EGTFISDYSIALDRKHQ[Aib]NFVNWLLAQSPSSGAPPPS-NH2 (not fully specified (residue 17)) [Compound 64]
[1]
  Human GIPR cAMP, HEK293T EC50: 0.5 pM
[2]
  Human GLP1R cAMP HEK293T EC50: 1000 nM

## [NMeY][Aib]EGTFISDYSIALDR[Aib]AQ[Aib]NFVNWLLAQKPSSGAPPPS-OH (not fully specified (residue 30)) [Compound 52]
[1]
  Human GIPR cAMP, HEK293T EC50: 0.3 pM
[2]
  Human GLP1R cAMP HEK293T EC50: 240 nM

## [NMeY][Aib]EGTFISDYSIALDRIHQK([AEEA-AEEA-γGlu-C16 diacid])NFVNWLLAQK (not fully specified) [Compound 4]
[1]
  Human GIPR cAMP, HEK293T EC50: 0.5 pM
[2]
  Human GLP1R cAMP HEK293T EC50: 692 nM

## [NMeY][Aib]EGTFISDYSIALDRKHQ[Aib]NFVNWLLAQSPSSGAPPPS-NH2 (not fully specified (residue 17)) [Compound 65]
[1]
  Human GIPR cAMP, HEK293T EC50: 0.3 pM
[2]
  Human GLP1R cAMP HEK293T EC50: 129 nM

## [NMeY][Aib]EGTFISDYSIALDRIHQK([AEEA-AEEA-γGlu-C15 diacid])NFVNWLLAQK (also: Me-Tyr methyl position not given here) [Compound 5]
[1]
  Human GIPR cAMP, HEK293T EC50: 0.8 pM
[2]
  Human GLP1R cAMP HEK293T EC50: 955 nM

## Y[Aib]EGTFISDYSI[Aib]KDR[Aib]AQ[Aib]NFVNWLLAQRPSSGAPPPS-OH (not fully specified (residues 1, 14)) [Compound 56]
[1]
  Human GIPR cAMP, HEK293T EC50: 0.3 pM
[2]
  Human GLP1R cAMP HEK293T EC50: 263 nM

## [NMeY][Aib]EGTFISDYSIALDR[Aib]K([G2E3-C15 diacid])Q[Aib]NFVNWLLAQSPSSGAPPPS-OH (not fully specified) [Compound 55]
[1]
  Human GIPR cAMP, HEK293T EC50: 0.2 pM
[2]
  Human GLP1R cAMP HEK293T EC50: 240 nM

## [NMeY][Aib]EGTFISDYSIALDRKHQ[Aib]NFVNWLLAQRPSSGAPPPS-NH2 (not fully specified (residue 17)) [Compound 63]
[1]
  Human GIPR cAMP, HEK293T EC50: 0.2 pM
[2]
  Human GLP1R cAMP HEK293T EC50: 141 nM

## [NMeY][Aib]EGTFISDYSIALDRK([G2E3-C15 diacid])AQ[Aib]NFVNWLLAQSPSSGAPPPS-OH (also: Me-Tyr methyl position not given here) [Compound 53]
[1]
  Human GIPR cAMP, HEK293T EC50: 0.1 pM
[2]
  Human GLP1R cAMP HEK293T EC50: 617 nM

B1: Compound 51 (peptide)
peptide: Y[Aib]EGTFISDYSIAKDR[Aib]AQ[Aib]NFVNWLLAQSPSSGAPPPS-OH
modifications: not fully specified (residues 1, 14); also: Me-Tyr methyl position not given here
[1]
  Human GIPR cAMP, HEK293T EC50: 0.3 pM
[2]
  Human GLP1R cAMP HEK293T EC50: 1000 nM

## YXEGTFISDYSIALDRXHQXDFVNWLLAQRPSSGAPPPS (not fully specified; Me-Tyr1; Aib 2,20; Km17 = Lys(gEgE-C15DA); C-term NH2) [Compound 66]
[1]
  Human GIPR cAMP, HEK293T EC50: 0.4 pM
[2]
  Human GLP1R cAMP HEK293T EC50: 1000 nM

B2: Compound 68 (peptide)
peptide: YXEGTFISDYSIALDRXHQXDFVNWLLAQSPSSGAPPPS
modifications: not fully specified; Me-Tyr1; Aib 2,20; Km17 = Lys(linker printed 'GS'-C15DA); C-term NH2
[1]
  Human GIPR cAMP, HEK293T EC50: 0.7 pM
[2]
  Human GLP1R cAMP HEK293T EC50: 200 nM

## YXEGTFISDYSIALDRXHQXDFVNWLLAQRPSSGAPPPS (not fully specified; Me-Tyr1; Aib 2,20; Km17 = Lys(gE-C15DA); C-term NH2) [Compound 67]
[1]
  Human GIPR cAMP, HEK293T EC50: 0.6 pM
[2]
  Human GLP1R cAMP HEK293T EC50: 525 nM

## YXEGTFISDYSIALDRXHQXDFVNWLLAQSPSSGAPPPS (not fully specified; Me-Tyr1; Aib 2,20; Km17 = Lys(gE-C15DA); C-term NH2) [Compound 69]
[1]
  Human GIPR cAMP, HEK293T EC50: 0.4 pM
[2]
  Human GLP1R cAMP HEK293T EC50: 1000 nM
